Data taken from patent US20190002511A1 (NATIONAL UNIVERSITY OF SINGAPORE, published 2019).
Square brackets hold non-standard residues; d marks the D form. Ends that are not written are not given here. β3hR = N=C(N)NCCC[C@H](N)CC(=O)O

B1: IS20 (peptide)
peptide: ISKQGLGGDFEEIPSDEIIE
notes: Avathrin residues 11-30; also called C-terminal cleavage product of avathrin
B2: QT26 (peptide)
peptide: QTAVPKISKQGLGGDFEEIPSDEIIE
notes: Avathrin without its four N-terminal residues
B3: UV011 (peptide)
peptide: MYSTAPPGDFEEIPDDAIEE
notes: also called C-terminal cleavage product of ultravariegin
B4: UV007 (peptide)
peptide: CDEAVRAIPKMYSTAPPGDFEEIPDDAIEE
notes: Ultravariegin with Cys at the N-terminus

Columns and labels:
[1] = target: T1, human α-thrombin (recombinant) (human, UniProt P00734 328-363; P00734 364-622); experiment: cell-based or functional assay
[2] = target: T1, human α-thrombin (recombinant); experiment: cell-based or functional assay; remark: listed apart in the source
[3] = target: T1, human α-thrombin (recombinant); experiment: thrombin amidolytic assay with S2238, Morrison tight-binding fit, non-competitive
Protocol: (§2) Each data point is the mean±S.D. of at least three independent experiments. […] Each data point is the mean±S.D. of at least three independent experiments. […] Each data point is the mean±S.D. of at least three experiments.
(§3) Thrombin amidolytic activity assays for all peptides were performed in 96-wells microtiter plates in 50 mM Tris buffer (pH 7.4) containing 100 mM NaCl and 1 mg/ml bovine serum albumin. […] Dose-response curves were fitted using the GraphPad Prizm software (San Diego, Calif., USA) to calculate IC50 values and Hill coefficients. To measure the inhibitory constants, different concentrations of S2238 were used and the residual velocities were determined using the Morrison's tight binding equation.

[4] = target: T1, human α-thrombin (recombinant); experiment: thrombin amidolytic assay with S2238, double reciprocal (Lineweaver-Burke) plot
Protocol: (§1) Each data point is the mean±S.D. of at least three independent experiments.
Thrombin amidolytic activity assays for all peptides were performed in 96-wells microtiter plates in 50 mM Tris buffer (pH 7.4) containing 100 mM NaCl and 1 mg/ml bovine serum albumin. […] The rates of formation of p-nitroaniline were followed by measuring the absorbance at 405 nm for 10 min with a Tecan InfinitePro M200 microplate reader from Tecan (Mannedorf, Switzerland). Dose-response curves were fitted using the GraphPad Prizm software (San Diego, Calif., USA) to calculate IC50 values and Hill coefficients. […] Inhibition of thrombin fibrinogenolytic activity of peptides were tested by measuring absorbance at 650 nm using a Sunrise microplate reader from Tecan (Mannedorf, Switzerland) as described previously [Koh C Y, et al., J Biol Chem 282: 29101-13 (2007)]. […] After different incubation times, reactions were quenched with 1% TFA (pH 1.8) and loaded onto a Jupiter Proteo column (4 μm, 90 Å, 100×1.0 mm) attached to a Dionex nano-HPLC system from Thermo Fisher Scientific (Waltham, Mass., USA) and eluted using an acetonitrile gradient with 0.05% TFA and 99.95% MilliQ water as eluent A and 0.05% TFA, 19.95% MilliQ water and 80% ACN as eluent B. Masses of all peaks were measured to identify cleavage products, which were subsequently quantified by integrating the peaks and calculating the area under the curves. […]

[5] = target: T1, human α-thrombin (recombinant); experiment: thrombin amidolytic assay with S2238, tight-binding fit
Protocol: as §1
Thrombin amidolytic activity assays for all peptides were performed in 96-wells microtiter plates in 50 mM Tris buffer (pH 7.4) containing 100 mM NaCl and 1 mg/ml bovine serum albumin. […] The rates of formation of p-nitroaniline were followed by measuring the absorbance at 405 nm for 10 min with a Tecan InfinitePro M200 microplate reader from Tecan (Mannedorf, Switzerland). Dose-response curves were fitted using the GraphPad Prizm software (San Diego, Calif., USA) to calculate IC50 values and Hill coefficients. To measure the inhibitory constants, different concentrations of S2238 were used and the residual velocities were determined using the Morrison's tight binding equation. Inhibition of thrombin fibrinogenolytic activity of peptides were tested by measuring absorbance at 650 nm using a Sunrise microplate reader from Tecan (Mannedorf, Switzerland) as described previously [Koh C Y, et al., J Biol Chem 282: 29101-13 (2007)]. […] After different incubation times, reactions were quenched with 1% TFA (pH 1.8) and loaded onto a Jupiter Proteo column (4 μm, 90 Å, 100×1.0 mm) attached to a Dionex nano-HPLC system from Thermo Fisher Scientific (Waltham, Mass., USA) and eluted using an acetonitrile gradient with 0.05% TFA and 99.95% MilliQ water as eluent A and 0.05% TFA, 19.95% MilliQ water and 80% ACN as eluent B. Masses of all peaks were measured to identify cleavage products, which were subsequently quantified by integrating the peaks and calculating the area under the curves. To measure the effect of different pre-incubation times on the thrombin inhibitory activity, amidolytic assays were performed for various incubation times (up to 36 h).

[6] = target: T1, human α-thrombin (recombinant); experiment: thrombin amidolytic assay with S2238, Morrison tight-binding fit, competitive
Excerpt: Data were fitted to the Morrison tight binding equation using GraphPad Prizm software. Each data point is the mean±S.D. of at least three experiments.
as §2

[7] = target: T1, human α-thrombin (recombinant); experiment: cell-based or functional assay; remark: listed apart in the source
[8] = target: T1, human α-thrombin (recombinant); experiment: thrombin amidolytic assay with S2238, tight-binding fit; remark: listed apart in the source
Protocol: A and C. […] B and D. Residual thrombin amidolytic activities in presence of UV003 and UV004 were measured at different concentrations of S2238 and their Kᵢ were determined.
Thrombin amidolytic activity assays for all peptides were performed in 96-wells microtiter plates in 50 mM Tris buffer (pH 7.4) containing 100 mM NaCl and 1 mg/ml bovine serum albumin. […] The rates of formation of p-nitroaniline were followed by measuring the absorbance at 405 nm for 10 min with a Tecan InfinitePro M200 microplate reader from Tecan (Mannedorf, Switzerland). Dose-response curves were fitted using the GraphPad Prizm software (San Diego, Calif., USA) to calculate IC50 values and Hill coefficients. To measure the inhibitory constants, different concentrations of S2238 were used and the residual velocities were determined using the Morrison's tight binding equation. Inhibition of thrombin fibrinogenolytic activity of peptides were tested by measuring absorbance at 650 nm using a Sunrise microplate reader from Tecan (Mannedorf, Switzerland) as described previously [Koh C Y, et al., J Biol Chem 282: 29101-13 (2007)].

[9] = target: T1, human α-thrombin (recombinant); experiment: comparison of Ki values
Protocol: as §3

[10] = target: T1, human α-thrombin (recombinant); experiment: comparison of Ki values, thrombin amidolytic assay
Protocol: as §3

Row | Binder | IC50, inhibition of thrombin amidolytic activity (S2238) [2] | IC50, inhibition of thrombin amidolytic activity [7] | Ki [8] | also measured
1 | B1 | 12.2 nM |  |  | IC50, inhibition of thrombin amidolytic activity, 0 min [1]: 12.4 nM; IC50, inhibition of thrombin amidolytic activity, 10 min pre-incubation [1]: 22.7 nM; Ki [3]: 5.76 nM
2 | SGGHQTAVP[β3hR]ISKQGLGGDFEEIPSDEIIE [β-avathrin] | 332 nM |  |  | fold loss of potency against avathrin (amidolytic IC50) [1]: > 100 fold; Ki [4]: 32 nM
3 | SDGHDTAVPKISKQGLGGDFEEIPSDEIIE [avathrin G2D, Q5D] | 13 nM |  |  | fold weaker inhibition against avathrin and QT26 [1]: < 2 fold; Ki [5]: 0.932 nM
4 | SGGHQTAVPKIHKQGLGGDFEEIPSDEIIE (also called 512H) [avathrin S12H] | 18.5 nM |  |  | fold loss of potency against avathrin (amidolytic IC50) [1]: 2 fold; Ki [5]: 1.23 nM
5 | SGGHQTAVPRISKQGLGGDFEEIPSDEIIE (also called K10R-avathrin) [avathrin K10R] | 1.15 nM |  |  | fold gain in activity against avathrin [1]: 5 fold; Ki [5]: 0.172 nM
6 | SGGHQTAVPKIAKQGLGGDFEEIPSDEIIE [avathrin S12A] | 101 nM |  |  | fold change of IC50 against avathrin [1]: 20 fold; fold drop in potency against avathrin (amidolytic IC50) [1]: > 10 fold; Ki [4]: 6.08 nM
7 | B2 | 8.94 nM |  |  | IC50, inhibition of thrombin amidolytic activity, 10 min pre-incubation [1]: 13.5 nM; Ki [6]: 0.76 nM
8 | SDEAVRAIPKMYSTAPPGDFEEIPDDAIEECA (Ultravariegin with C-terminal CA) [UV008] |  | 1.82 nM | 0.0786 nM | 
9 | MYSTAPPGDFEEIPDDAIEEGCCC (UV011 with C-terminal GCCC) [UV014] |  | 1.98 nM | 2.47 nM | 
10 | SGGHQTAVPKISKQGPPGDFEEIPSDEIIE [avathrin L16P, G17P] | 181 nM |  |  | fold drop in activity against avathrin (amidolytic IC50) [1]: > 25 fold
11 | SDQGDVAIPKMYSTAPPGDFEEIPDDAIEE [UV003] |  | 0.6 nM | 0.00421 nM | 
12 | B3 |  | 1.66 nM | 1.39 nM | fold better Ki than the avathrin C-terminal cleavage product IS20 [9]: ~4 fold; fold better Ki than the variegin C-terminal cleavage product MH22 [9]: ~10 fold
13 | SDEAVRAIPKMYSTAPPGDFEEIPDDAIEEGCCC (Ultravariegin with C-terminal GCCC) [UV015] |  | 1 nM | 0.00852 nM | 
14 | SDEAVRAIPKMYSTAPPGDFEEIPEEYLDDES [UV005] |  | 0.91 nM | 0.016 nM | fold drop in affinity against ultravariegin [10]: ~3.6 fold
15 | SDEAVRAEPKMHKTAPPGDFEEIPDDAIEE [UV004] |  | 0.46 nM | 0.00455 nM | 
16 | B4 |  | 0.601 nM | 0.00627 nM | 
17 | SDEAVRAIPKMYSQAPPGDFEEIPDDAIEE (Ultravariegin Thr14Gln) [UV013] |  | 0.341 nM |  | 
18 | SDEAVRAIPKMYSTAPPGDFEEIPDDEIEE (Ultravariegin Ala27Glu) [UV012] |  | 0.94 nM |  | 
19 | SDQGDVAEPKMYSTAPPFDFEAIPEEYLDDES [Variegin YS] |  | 3.16 nM | 0.671 nM | 
